Measurements taken from US20030186441A1 (MORPHOTEK, published 2003).

Biological target: T1, full length hMLH1 protein (human, UniProt P40692 2-756)
T1 construct: also called MLH1 (human)
T1 sequence: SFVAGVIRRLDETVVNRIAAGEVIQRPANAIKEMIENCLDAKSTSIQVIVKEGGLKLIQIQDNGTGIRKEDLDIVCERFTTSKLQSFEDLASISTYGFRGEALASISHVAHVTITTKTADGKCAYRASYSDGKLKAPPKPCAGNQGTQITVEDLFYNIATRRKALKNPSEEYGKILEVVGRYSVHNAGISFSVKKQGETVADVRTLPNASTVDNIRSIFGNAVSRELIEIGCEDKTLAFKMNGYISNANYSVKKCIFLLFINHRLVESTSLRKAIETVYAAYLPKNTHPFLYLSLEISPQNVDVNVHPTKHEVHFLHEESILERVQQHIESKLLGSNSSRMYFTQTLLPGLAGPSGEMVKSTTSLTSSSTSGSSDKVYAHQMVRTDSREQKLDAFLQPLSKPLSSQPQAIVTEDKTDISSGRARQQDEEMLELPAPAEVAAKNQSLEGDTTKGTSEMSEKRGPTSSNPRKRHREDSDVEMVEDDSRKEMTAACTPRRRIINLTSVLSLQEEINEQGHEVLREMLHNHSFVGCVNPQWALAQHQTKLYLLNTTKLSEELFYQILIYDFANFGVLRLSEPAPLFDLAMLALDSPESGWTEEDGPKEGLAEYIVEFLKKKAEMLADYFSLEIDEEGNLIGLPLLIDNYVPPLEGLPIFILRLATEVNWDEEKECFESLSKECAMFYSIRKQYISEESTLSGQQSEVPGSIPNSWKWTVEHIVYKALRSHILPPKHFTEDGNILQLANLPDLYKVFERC
Assay: co-immunoprecipitation of in vitro translated proteins with anti-hMLH1 mAb; converse experiment with N terminal hPMS2 antibody
Description: […]. […] Lane 6 contains a nonprogrammed reticulocyte lysate. In both panels A and B, autoradiographs of immunoprecipitated products are shown. When a 35S labelled, full-length hMLH1 protein (FIG. 3A, lane 5) was mixed with the unlabelled carboxyl terminal hPMS2 polypeptide, a monoclonal antibody (mAb) to the carboxyl terminus of hPMS2 efficiently immunoprecipitated the labeled hMLH1 protein (lane 1). No hMLH1 protein was precipitated in the absence of hPMS2 (lane 2). Conversely, when the 35S labelled carboxyl terminus of hPMS2 (lane 3) was incubated with unlabelled, full length hMLH1 protein, an anti hMLH1 mAb precipitated the hPMS2 polypeptide (lane 4). In the absence of the unlabelled hMLH1 protein, no hPMS2 protein was precipitated by this mAb (lane 6).
Immunoprecipitation. Immunoprecipitations were performed on in vitro translated proteins by mixing the translation reactions with 1 μg of the MLH1 specific monoclonal antibody (mAB) MLH14 (Oncogene Science, Inc.), a polyclonal antibody generated to codons 2-20 of hPMS2 described above, or a polyclonal antibody generated to codons 843-862 of hPMS2 (Santa Cruz Biotechnology, Inc.) in […] of EBC buffer (50 mM Tris, pH 7.5, 0.1 M NaCl, 0.5% NP40). […]

B1: hPMS2-134 (containing codons 1-134 of hPMS2) (other)
chain: MERAESSSTEPAKAIKPIDRKSVHQICSGQVVLSLSTAVKELVENSLDAGATNIDLKLKDYGVDLIEVSDNGCGVEEENFEGLTLKHHTSKIQEFADLTQVETFGFRGEALSSLCALSDVTISTCHASAKVGTR
  binding result: no binding
